Reference: patent US6767887

Molecular target: human neutral endopeptidase 24.11 (human) (UniProt P08473)
Assay: cell-based or functional assay

Q: With “GLP-1-(7-36)-NH2 (from UniProt P01275 98-127) (peptide)” as the substance, how does the Degradation rate (mM/100 ng/ml NEP24.11/min) read?
A: 0.0586
